Results on one molecule are retold here after patent publication US8444970B2, “Compositions and methods for treating ocular diseases and conditions” (Lpath, Inc., priority 2006, dated 2013).

A short description of data set [1]: Stability after thermochallenge (TM). The conditions noted are these: thermochallenge of supernatants. Format: physicochemical. How it is done:
iii. Stability. The humanized variants were tested for stability after challenge at high temperature. The approximate midpoints of the thermal unfolding transitions (TM) were determined for every humanized variant by subjecting the supernatants to temperatures ranging from 60 to 74° C. These temperatures were chosen based on the denaturation profile observed for the murine antibody molecule after thermochallenging between a broad range of temperatures between 50 and 80° C. The binding properties of each variant were determined before and after thermochallenge.

Data set [2] concerns CNV lesions after laser-induced rupture of Bruch's membrane. The data set can be described thus: Murine model of laser-induced CNV and scar formation (Example 4). The following applies: 0.5 ug. Format: in vivo, mouse. The protocol: Female C57BL6/J mice were subjected to laser-induced rupture of Bruch's membrane and administered either 0.5 μg of Sphingomab or an isotype-matched non-specific (NS) antibody diluted in 2 μl of physiological saline. Mice were sacrificed 14 and 28 days after laser rupture.
To induce CNV lesions, the pupils were dilated with ophthalmic tropicamide (0.5%) and phenylephrine (2.5%). A coverslip was placed on the eye. An Oculight GL 532 nm (Iridex Corporation, Mountain View, Calif.) coupled to a slit lamp set to deliver a 100 msec pulse at 150 mW with a 50 μm spot size was used to rupture Bruch's membrane in three quadrants of the right eye located approximately 50 μm from the optic disc at relative 9, 12 and 3 o'clock positions. The left eye served as an uninjured control in all cases. Any lesion not associated with a vapor bubble or lesions that became confluent were excluded from analysis. […]
To assess collagen deposition, the sclera-choroid-RPE complex was stained with Masson's Trichrome. […] Approximately 30 sections per lesion were evaluated. Quantitation of the volume of collagen deposition was calculated in the same manner as described for CNV lesion volume.
Captured digital images were evaluated morphometrically using ImageJ software (Research Services Branch, National Institutes of Health, Bethesda, Md.).

The test system of a further data set is HUVECs. The data set can be described thus: HUVEC tube formation on Matrigel. Format: cell-based, human. The following applies: co-incubated with S1P, GF-reduced Matrigel, 6 hr. How it is done:
FIG. 5. FIG. 5 has two panels, A and B. In panel A, S1P is shown to promote neovascularization through induction of HUVECs tube formation and migration, which is reduced by SPHINGOMAB. […] The number of cells that migrated to the Matrigel membrane were counted in five independent fields.
Experiments were performed as described by Visentin et al. (Cancer Cell 2006 March; 9(3):225-38).

The subject of data set [3] is endothelial cell (EC) infiltration into Matrigel plugs. The data set can be described thus: In vivo Matrigel plug assay, S1P-supplemented plugs, EC infiltration. Also noted: species or system mouse. The conditions noted are these: systemic administration every 48 hrs from 1 day prior to implantation. How it is done:
Based on in vivo studies showing that S1P increased endothelial capillary growth into subcutaneously implanted Matrigel plugs, we speculated that SPHINGOMAB could reduce de novo BV formation in vivo. To investigate this, we employed the in vivo Matrigel Plug assay for neovascularization. In one set of experiments, Matrigel was supplemented with either […], 0.5 μg/mL bFGF or 1 μg/mL VEGF and then injected […]. into mice (n=4). After 10 days, the mice were heparinized and injected with the fluorescent lectin, Isolectin B4-FITC, which binds to adhesion molecules expressed by vascular EC that form the growing BVs. The plugs were then excised, frozen in OCT, sectioned and viewed for FITC-stained BVs.
Sections of the plugs were then stained with hemotoxyln & eosin for evaluation of EC infiltration (FIG. 6B). The infiltration of ECs is a critical step in neo-vascularization. […] Cell infiltration is presumed to be ECs although we recognize that other cell types such as immune cells may also be stained.

The test system of a further data set is WI-38 lung fibroblasts. The data set can be described thus: S1P-induced differentiation into myofibroblasts (alpha-SMA immunoblot). The following applies: 1 ug/mL antibody, 12-24 hr. Format: cell-based. How it is done: FIG. 7. […] See Example 7, below, for experimental details. […] In these experiments, fibroblasts were serum-starved and then treated with 0, 0.1, 0.5, or 1 μM S1P+/−1 μg/mL SPHINGOMAB for 12-24 hr. […] SPHINGOMAB neutralized each of these S1P effects. SPHINGOMAB reduced perivascular fibrosis in vivo in a murine model of a permanent myocardial infarction (E).
S1P makes profound contributions to wound healing by activating fibroblast migration, proliferation and collagen production; SPHINGOMAB neutralizes these effects. Several studies using multiple types of fibroblasts confirm S1P's ability to promote wound healing: 1) S1P increased Swiss-3T3 fibroblast proliferation as measured by ^3H-thymidine incorporation using standard methods (FIG. 7A); 2) S1P promoted the migration of cardiac fibroblasts in a standard scratch wound healing assay. […] In each of these assays, SPHINGOMAB neutralized S1P's. It is anticipated that ocular fibroblasts would respond similarly to S1P and SPHINGOMAB.

B1: LT1002: murine anti-S1P monoclonal antibody, IgG1 kappa, hybridoma clone 306D326.26 (antibody, listed as Mus sp., V domains shown)
VH: QAHLQQSDAELVKPGASVKISCKVSGFIFIDHTIHWMKQRPEQGLEWIGCISPRHDITKYNEMFRGKATLTADKSSTTAYIQVNSLTFEDSAVYFCARGGFYGSTIWFDFWGQGTTLTVS
VL: ETTVTQSPASLSMAIGEKVTIRCITTTDIDDDMNWFQQKPGEPPNLLISEGNILRPGVPSRFSSSGYGTDFLFTIENMLSEDVADYYCLQSDNLPFTFGSGTKLEIK
As to B1, the “TM (approximate midpoint of thermal unfolding transition)” value in data set [1] turned out to be 65 °C. Further, the choroidal neovascularization result in data set [2] (14 and 28 days after laser-induced rupture of Bruch's membrane) is given as “dramatically attenuates”. Moreover, the “fibrosis associated with CNV lesion formation” value in data set [2] (28 days after laser-induced rupture) is given as “significantly reduces”. Moreover, the “formation of capillary-like structures” value in the data set on HUVECs is recorded as “failed to form capillary-like structures”. The “EC infiltration into S1P-containing Matrigel plugs” value in data set [3] is recorded as “reduced amount of EC infiltration”. Besides, the “S1P-induced differentiation of WI-38 fibroblasts into myofibroblasts” value with WI-38 lung fibroblasts was “neutralized”.
